# In publication PMC8888459:
# B1: Yah1 (untagged, holo) (natural protein)
# chain: IAAHLLRTSPSLLTRTTTTTRFLPFSTSSFLNHGHLKKPKPGEELKITFILKDGSQKTYEVCEGETILDIAQGHNLDMEGACGGSCACSTCHVIVDPDYYDALPEPEDDENDMLDLAYGLTETSRLGCQIKMSKDIDGIRVALPQMTRNVNNNDFS
# Target: NIA–Isu1 complex with C. thermophilum Isu1 (S. cerevisiae | E. coli (endogenous in the expression host) | C. thermophilum) (UniProt P25374)
# Experiment: pull-down; competition: Yfh1^GST (2.5 μM) with NIA (5 μM) and Isu1Ct (7.5 μM), then Yah1 WT (increasing concentrations, 50 μM) or Yah1(DD/KK) (50 μM) added; glutathione resin; densitometry, amount without Yah1 set as 100%; buffer PD
# Sequence of NIA–Isu1 complex with C. thermophilum Isu1 (S. cerevisiae | E. coli (endogenous in the expression host) | C. thermophilum) (P25374 whole entry, looked up, one chain of several): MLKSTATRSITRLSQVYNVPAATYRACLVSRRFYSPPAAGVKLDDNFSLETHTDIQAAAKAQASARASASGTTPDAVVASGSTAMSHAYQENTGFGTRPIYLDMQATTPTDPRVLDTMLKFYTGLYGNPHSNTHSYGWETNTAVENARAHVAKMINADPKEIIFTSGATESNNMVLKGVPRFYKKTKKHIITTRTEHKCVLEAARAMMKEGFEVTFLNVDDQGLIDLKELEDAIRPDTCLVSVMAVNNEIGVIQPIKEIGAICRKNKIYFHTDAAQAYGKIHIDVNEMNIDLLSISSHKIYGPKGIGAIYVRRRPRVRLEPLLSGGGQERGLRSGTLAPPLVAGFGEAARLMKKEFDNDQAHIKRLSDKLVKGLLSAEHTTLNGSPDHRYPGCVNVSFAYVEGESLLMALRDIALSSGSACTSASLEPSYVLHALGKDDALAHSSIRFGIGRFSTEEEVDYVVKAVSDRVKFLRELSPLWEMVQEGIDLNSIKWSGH
binder,measurement,value
B1,percent of the control left pulled down with Yfh1^GST at 75 μM Yah1,35%
